Measured values from article PMC2953525, “Subtle Alterations in PCNA-Partner Interactions Severely Impair DNA Replication and Repair” (PLoS Biology, 2010).
Numbering of substitutions follows the chain as printed.

How the values were obtained:
[1] = biological target: Msh6 PIP peptide; test: SPR analysis of PCNA binding to PIP peptide; set-up: species or system yeast; conditions: peptide 5-5,000 nM
Excerpt: To quantify differences in binding affinities of the PCNA mutants relative to the WT, we characterized four PCNA mutants with increased affinity for PIP peptides derived from Rad30, Pol32, Msh6, and Ung1 partners using SPR. These mutants were overexpressed in E. coli, purified by affinity chromatography, and immobilized on an SPR sensor chip for binding characterization. SPR binding analysis enabled direct and sensitive measurement of interaction affinities relative to the Y2H system and indicated an up to 8-fold increase in binding affinity for the different PIP peptides, relative to WT PCNA (Table 1). Such analysis allowed the detection of a significant decrease in the Rad30 PIP peptide dissociation rate in the Pol30-Rad30E9p mutant relative to the WT, indicating a ∼9-fold increase in the lifetime of the PCNA-Rad30 complex (see Table 1). Collectively the ELISA, Y2H, and SPR assays validated and quantified the increase in mutant PCNA binding affinities, relative to WT PCNA.
Protein interaction assays were carried out using the ProteOn XPR36 (Bio-Rad) instrument. WT or PCNA mutants (0.4 to 5.2 fmol) were immobilized on the surface of a GLM sensor chip by a carbodiimide-activated succinimide-coupling method, as specified by the manufacturer. All SPR experiments were performed by flowing 150 µl of the target peptide at a flow rate of 30 µl/min onto the PCNA-bound chip. Different concentrations (5–5,000 nM) of PIP peptides (Table 1) were injected over the PCNA chip, and binding parameters were determined using ProteOn XPR36 software (Bio-Rad). The ligand (PCNA) and analyte (peptide) buffers were PBST and 150 mM NaCl, 1 mM EDTA, 0.01% Tween-80, 30 mM Hepes, pH 7.5, respectively.

[2] = system: mutated Rad30 PIP peptide; test: Yeast surface display of PCNA, PIP peptide binding by flow cytometry; conditions: peptide with the two conserved phenylalanines mutated to alanine
Protocol: (§1) Briefly, EBY100 transformed with plasmid pCTCON-PCNA were grown in SDCAA media to logarithmic phase and 2×10^6 of cells were washed, resuspended in SGCAA induction media, and grown at 20°C with shaking for an additional 18 h. Induced cells (1×10^6) were collected by centrifugation, washed with PBSF (PBS+ 1 g/L BSA), and incubated for 1 h at 25°C with mouse α-Myc antibodies (Santa Cruz Biotechnology, 1 µl/50 µl PBSF) and 100–400 µM of biotinylated PIP peptide (Peptron, see Figure S1 for peptide sequences). […] The labeled cells were washed, resuspended with PBSF, and analyzed by flow cytometry (FACS Calibur, BD).
(§2) Supplementary file pbio.1000507.s003.pdf: Figure S3 Yeast surface display of PCNA. […] Expression is detected through fluorescent antibody binding to the c-Myc epitope tag (light blue) while binding of the biotinylated PIP peptide (orange) is detected using fluorescently-labeled streptavidin (green). […] The specificity of PCNA binding for PIP peptides was detected following incubation with biotinylated PIP peptide derived from Rad30 (B and D) and mutated Rad30 in which the two conserved phenylalanine residues of the PIP peptide are mutated to alanine (C), followed by incubation with allophycocyanin (APC)-labeled streptavidin (y-axis). […]

[3] = biological target: T1, pol30-Rad27E31 (yeast, UniProt P15873 1-258, IDCL DIDADFLKIEEL to DGDYDVLKIREL); test: two-hybrid; quantitative Y2H: generation time of the YRG2 strains in liquid SC-Leu-Trp-His, given relative to cells expressing WT PCNA; average of at least 3 experiments; conditions: partners not purified
T1 construct: PCNA (POL30), yeast; source: yeast two-hybrid fusion (pAD-GAL4, strain YRG2)
T1 sequence: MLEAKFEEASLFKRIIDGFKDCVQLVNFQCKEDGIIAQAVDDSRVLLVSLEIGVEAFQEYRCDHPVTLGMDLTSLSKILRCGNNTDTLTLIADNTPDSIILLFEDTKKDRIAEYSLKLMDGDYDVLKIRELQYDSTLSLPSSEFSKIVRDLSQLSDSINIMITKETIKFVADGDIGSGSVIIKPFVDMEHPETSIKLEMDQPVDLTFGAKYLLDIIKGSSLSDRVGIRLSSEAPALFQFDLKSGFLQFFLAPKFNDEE

[4] = biological target: T2, pol30-Rad30E2 (yeast, UniProt P15873 1-258, IDCL DIDADFLKIEEL to DDDWDFLKILEL); test: as above; conditions: partners not purified
T2 construct: PCNA (POL30), yeast; source: yeast two-hybrid fusion (pAD-GAL4, strain YRG2)
T2 sequence: T1 sequence with G121D, Y123W, V125F, R129L

[5] = biological target: T3, pol30-Rad27L1 (yeast, UniProt P15873 1-258, IDCL DIDADFLKIEEL to D––VDILKIGEL); test: as above; conditions: partners not purified
T3 construct: PCNA (POL30), yeast; two residues after the first aspartic acid of the IDCL are deleted; source: yeast two-hybrid fusion (pAD-GAL4, strain YRG2)
T3 sequence: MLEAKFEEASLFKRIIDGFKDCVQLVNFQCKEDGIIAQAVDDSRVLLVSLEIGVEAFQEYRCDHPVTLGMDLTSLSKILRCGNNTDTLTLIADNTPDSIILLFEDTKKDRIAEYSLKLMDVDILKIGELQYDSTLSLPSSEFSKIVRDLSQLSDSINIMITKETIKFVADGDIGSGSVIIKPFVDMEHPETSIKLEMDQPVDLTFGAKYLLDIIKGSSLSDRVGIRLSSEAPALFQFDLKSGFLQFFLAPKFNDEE

[6] = system: Rad30 PIP peptide; test: Yeast surface display of PCNA, PIP peptide binding by flow cytometry; conditions: biotinylated peptide, APC-streptavidin, compared with WT PCNA / Rad30 PIP peptide
Protocol: as §1, §2

POL30: wild-type yeast PCNA (POL30), IDCL sequence DIDADFLKIEEL
Kd ([1]; PCNA immobilized, ProteOn XPR36, read-out: Binding affinity for Msh6 PIP peptide (SPR)): 3 µM | binding to a mutated Rad30 PIP peptide (yeast surface display) [2]: dramatic reduction in binding affinity

B1: Rad27 (natural protein, yeast, UniProt P26793 1-382, looked up)
chain: MGIKGLNAIISEHVPSAIRKSDIKSFFGRKVAIDASMSLYQFLIAVRQQDGGQLTNEAGETTSHLMGMFYRTLRMIDNGIKPCYVFDGKPPDLKSHELTKRSSRRVETEKKLAEATTELEKMKQERRLVKVSKEHNEEAQKLLGLMGIPYIIAPTEAEAQCAELAKKGKVYAAASEDMDTLCYRTPFLLRHLTFSEAKKEPIHEIDTELVLRGLDLTIEQFVDLCIMLGCDYCESIRGVGPVTALKLIKTHGSIEKIVEFIESGESNNTKWKIPEDWPYKQARMLFLDPEVIDGNEINLKWSPPKEKELIEYLCDDKKFSEERVKSGISRLKKGLKSGIQGRLDGFFQVVPKTKEQLAAAAKRAQENKKLNKNKNKVTKGRR
notes: Rad27 (endonuclease), yeast; also called pBD-Rad27; source: yeast two-hybrid fusion (pBD-GAL4, strain YRG2)
fold change in affinity relative to WT PCNA (Y2H generation time) [3]: 1.5 fold | fold change in affinity relative to WT PCNA (Y2H generation time) [4]: 0.4 fold | fold change in affinity relative to WT PCNA (Y2H generation time) [5]: 1.7 fold

B2: pol30-Msh6E6: PCNA mutant evolved for Msh6, IDCL sequence DYDKDLLKIIEL (protein)
chain: T1 sequence with G121Y, Y123K, V125L, R129I
modifications: left off: Gal4 activation domain, end not stated, kept
Fold increase in binding affinity for Msh6 PIP peptide relative to WT PCNA (SPR) ([1]; footnote d, PCNA immobilized on GLM chip): 1.6 fold

B3: pol30-79: previously studied PCNA mutant with decreased partner binding, IDCL sequence DIDADFAKAEEL (protein)
chain: T1 sequence with G121I, Y123A, V125F, L126A, I128A, R129E
modifications: left off: Gal4 activation domain, end not stated, kept
binding to the Rad30 PIP peptide (yeast surface display) [6]: dramatic reduction in binding affinity
